Test results as given in US12281147.

How the values were obtained:
[1] = biological target: wild-type human IL-21R (human) (UniProt Q9HBE5); assay: AlphaSeq yeast mating assay, pH 6 media
[2] = biological target: wild-type human IL-21R (human) (UniProt Q9HBE5); assay: AlphaSeq yeast mating assay, unbuffered media
[3] = biological target: wild-type human IL-21R (human) (UniProt Q9HBE5); assay: AlphaSeq yeast mating assay, pH 7 media
[4] = biological target: wild-type human IL-21R (human) (UniProt Q9HBE5); assay: AlphaSeq yeast mating assay, pH 5 media
[5] = biological target: human interleukin 21 receptor (IL-21R) (human) (UniProt Q9HBE5); assay: AlphaSeq yeast mating assay, unbuffered media
[6] = biological target: human interleukin 21 receptor (IL-21R) (human) (UniProt Q9HBE5); assay: AlphaSeq yeast mating assay, pH 7 media
[7] = biological target: human interleukin 21 receptor (IL-21R) (human) (UniProt Q9HBE5); assay: AlphaSeq yeast mating assay, pH 5 media
[8] = biological target: human interleukin 21 receptor (IL-21R) (human) (UniProt Q9HBE5); assay: AlphaSeq yeast mating assay, pH 6 media

| Substance | Kd [1] | Kd [2] | Kd [3] | Kd [4] | other results |
| --- | --- | --- | --- | --- | --- |
| IL-21_A63T (from UniProt Q9HBE4 32-152) (ligand) | 21 nM | 3.3 µM | 210 nM |  |  |
| IL-21_A87N (from UniProt Q9HBE4 32-152) (ligand) | 25 nM |  | 120 nM | 110 nM |  |
| IL-21_E72H (from UniProt Q9HBE4 32-152) (ligand) | 11 nM | 3.4 µM | 21 nM |  |  |
| IL-21_E93G (from UniProt Q9HBE4 32-152) (ligand) | 37 nM | 7.2 µM | 150 nM |  |  |
| IL-21_F60I (from UniProt Q9HBE4 32-152) (ligand) |  | 7.7 µM | 190 nM | 340 nM |  |
| IL-21_F60R (from UniProt Q9HBE4 32-152) (ligand) | 26 nM |  | 27 nM | 76 nM |  |
| IL-21_F76M (from UniProt Q9HBE4 32-152) (ligand) | 21 nM |  | 75 nM | 77 nM |  |
| IL-21_H35P (from UniProt Q9HBE4 32-152) (ligand) |  |  |  |  | Kd [5]: 560 nM; Kd [6]: 59 nM; Kd [7]: 41 nM |
| IL-21_H118I (from UniProt Q9HBE4 32-152) (ligand) |  |  |  |  | Kd [5]: 150 nM; Kd [7]: 360 nM |
| IL-21_H118K (from UniProt Q9HBE4 32-152) (ligand) | 3100 nM |  | 370 nM | 99000 nM |  |
| IL-21_I96V (from UniProt Q9HBE4 32-152) (ligand) |  | 3 µM | 62 nM | 190 nM |  |
| IL-21_K85S (from UniProt Q9HBE4 32-152) (ligand) |  |  |  |  | Kd [7]: 150 nM |
| IL-21_K106E (from UniProt Q9HBE4 32-152) (ligand) |  |  |  |  | Kd [5]: 120 nM; Kd [6]: 550 nM |
| IL-21_K106T (from UniProt Q9HBE4 32-152) (ligand) |  |  |  |  | Kd [5]: 210 nM; Kd [7]: 200 nM |
| IL-21_K131V (from UniProt Q9HBE4 32-152) (ligand) |  |  |  |  | Kd [7]: 26 nM |
| IL-21_L56M (from UniProt Q9HBE4 32-152) (ligand) | 45 nM | 6.7 µM | 84 nM | 350 nM |  |

| Substance | Kd [1] | Kd [2] | Kd [3] | Kd [4] | other results |
| --- | --- | --- | --- | --- | --- |
| IL-21_L120Y (from UniProt Q9HBE4 32-152) (ligand) |  |  |  |  | Kd [6]: 58 nM |
| IL-21_N51E (from UniProt Q9HBE4 32-152) (ligand) |  |  |  |  | Kd [8]: 11 nM; Kd [5]: 250 nM; Kd [6]: 140 nM; Kd [7]: 20 nM |
| IL-21_N54H (from UniProt Q9HBE4 32-152) (ligand) | 20 nM |  | 27 nM | 77 nM |  |
| IL-21_N54P (from UniProt Q9HBE4 32-152) (ligand) | 20 nM | 5.4 µM | 27 nM | 89 nM |  |
| IL-21_N97G (from UniProt Q9HBE4 32-152) (ligand) | 24 nM | 7.6 µM | 48 nM | 77 nM |  |
| IL-21_P62H (from UniProt Q9HBE4 32-152) (ligand) | 21 nM | 5.1 µM | 110 nM | 160 nM |  |
| IL-21_P62T (from UniProt Q9HBE4 32-152) (ligand) |  | 4.5 µM | 46 nM |  |  |
| IL-21_P107D (from UniProt Q9HBE4 32-152) (ligand) |  |  |  |  | Kd [5]: 190 nM; Kd [7]: 60 nM |
| IL-21_P108L (from UniProt Q9HBE4 32-152) (ligand) | 35 nM | 8.1 µM | 99 nM | 360 nM |  |
| IL-21_P133I (from UniProt Q9HBE4 32-152) (ligand) | 44 nM |  | 110 nM |  |  |
| IL-21_Q41S (from UniProt Q9HBE4 32-152) (ligand) | 26 nM | 3 µM | 25 nM | 140 nM |  |
| IL-21_Q48G (from UniProt Q9HBE4 32-152) (ligand) | 16 nM | 3.2 µM | 39 nM | 59 nM |  |
| IL-21_R34E (from UniProt Q9HBE4 32-152) (ligand) |  |  | 210 nM |  |  |
| IL-21_R34L (from UniProt Q9HBE4 32-152) (ligand) |  |  |  |  | Kd [5]: 330 nM; Kd [6]: 77 nM; Kd [7]: 100 nM |
| IL-21_R34M (from UniProt Q9HBE4 32-152) (ligand) |  |  |  |  | Kd [5]: 390 nM; Kd [7]: 150 nM |
